The values that follow come from patent US20240026407A1, “MODIFICATION OF SAPONINS” (GLAXOSMITHKLINE BIOLOGICALS SA, priority 2020, published 2024).

Bounds are passed on as bounds.

B1: 817 (protein, listed as Pseudonocardia sp.)
chain: MAHVDEELLGTLIATLDLERKVRLLTGADFWSTPAEPAIGLRRMVLSDGPSGVRGESFDEREPSLSLPSSSALGATWDPAAARRYGSALGAEARRQHADAVLGPTINLHRTPYGGRHFEALSEDPLLTAELAAAYVEGLQAHGVAATPKHYVANDAETERFSVDNRVGDRALRELYLAAFEPVVTRAGAWAVMSAYNAVNGTTMSENPLLAEPLTGEWGFDGLVMSDWGGARSTEASARAEQHLVMPGPVSAWGARLVEAVRDGRVGEDVIDGKVRRLLRLAARVGALDGVPPQVTEPPPAEDGAAVARELAAAGSVLVRNTRADGAAELPWDHAVPGSVAVLGHNAALARTQGGGSATVRPAAVVSPLDGLRAALGADRVRYRLGAQVAEGVQPFDPASITNPVTGGSGLRAVFRDVGGAALRTEDRLSSSLIWMGAEIPEGTDHVEIALRWDAPAGAHRLGAAAVGHVVLVAGGTTVLDADGVLTGDEGPGAAIFEAPSVTAGVTTDGPVDLVLRFRPSGQEAGMPLVAVTVGEETVVDDPDAEIAAAAALAAGTDVAVVVVGTNDRIESEGFDRSTLALPGRQDDLVRAVAAANPRTVVVVNSGAPVLLPWRDEVAAILLGWFGGEQFGEAVADVLLGAAEPGGRLPTTWPGTGRERSVLSGVPSDGVLRYDEGVHAGHRNWLRHGETPAYPFGHGLGYTTWTLDGMSVGRWSADGIDVTVTLTNIGDRPGRQVVQAYLSRDRSDVERPARWLAGWAVVDAAPGTTTVTVPVSRRAFRHRTGTGWATEPGTWTLHLGFSVTDTPLAAEVTTT
B2: 854 (protein, listed as Corynespora cassiicola)
chain: MAQESGTVHDDESLQALVGQMTLEEKIKMLSAKNVWETPEIDRLGIPSLKVTDGPNGARGGSFFDGTTAACFPSCVSLAATFNRSLSRQVGKALEQEAITKGAYVLLGPTVCCHRSPLGGRNFEAFSEDPYLSGALASEYVKGLQEERVAATVKHFLANEQDTRRFSVNEKISERALREIYLRPFEMVAKEADPWCFMSSYPKINGAHVDAQSKFLVDILRKEWGYKGLIMSDWGATSTPESVRYGLDLETPGPPRWRTTDAVTKCLADGHIEESDIDARVLATLRLLKKVGKFDDRKTTPPEQAIDRPEHRALIRKAGGEGIVLLKNNGNLLPIDTRKTKKIALLGPLAKYAAAHGGGSASLNCHYKISPYDAFVARLGGDVEITHSKGAHIFRVYPDLEASCTNARGNSGFLAEYFMSSSTTEKPFWTEEFPRGSVTTLMNTKVIGCKTLKFTTTYQPPVSGSHYLSFSGLGPSQLFINDMLVAEQKEPTKDAMGFLLGVQEEVRIQYPFSSTQSYAISMVTHPSPFSNAELYLMENQCAIHIGFIAQEEIEHDVLSEAVDLASSADLAIVFVGNTIQWETEGQDLETMTLPADGSQDNLISQVVAANPNTIVVNTTGVPVELPWVDSVPALLQAWYAGQECGNAILDVLLGEVSPSGKLPISWPKKYEHTGCYGHFGLDSFESREVEYVEGVYVGYRWFDQWWGQDKEVRFPFGFGLSYTEFDISDARISGAISGDESSQVKVSANIRNIGDRFGAETVQIYVQPPALADLGRPLKDLVGFVKVELKPGETRDITVCFQKDNVSFWNEKANQWRVCRGTYNVLIATSSDPKDAKQALRFEVEEDLDFDP
B3: 819 (protein)
chain: MTTVHPDDYADRASELVAAMTLDEKASLTSGADFWNLKTVERLGLGAVMVTDGPHGLRKATNDAEIGIGQAVPATCFPTAAALGSTWDDELLEQVGAALGEEARAAGVAVVLGPGVNMKRSPLCGRNFEYFSEDPLVAGRAGAAMVRGVQSQGVGTSVKHFAANSQETDRMRIDARIGERALREIYLPAFERIVTQTRPWTVMCAYNKVNGTYASQHPWLLTTVLREDWGFGGLVVSDWGAVDQRVPGLAAGLDLEMPASGGVTDEQIARAVRTGELDEAVLDRAVQRIVALILAAQAVEPGTGFDTDAHHELARKAAAAGAVLLRNEPVDGSPVLPLDARDITGQAPLVVIGEFARTPRYQGAGSSQINPTRLDSALDALREQLGGAVRFEPGYRLAEATGMPGQELTDDELADRAVEAARGATVVLFAGLPAAVESEGYDRDDIELPNAQTTLIERVSAVAARTTVVLSNGSVVSVASWREKVDALLECWLGGQGGGSATADVLLGRSCPGGHLAESIPLALSDVPAQLNFPGSHSRVDHGEGVFVGYRGLDTMGREVAYPFGFGLTYTTFELTGVQATPVVTVADGTGLDETVAVVRGTLTNTGQRTGAQVVQLYLGRHEASRVARAPRELRGYEKITLAPGQSAPFEFALSRRDLSYWDEGTGCWQVEPGAYRAWVGFSSRDAAAVLPLQVTAPEPASPLGKDSTYAEWMAHPVGGPLLRTDARAFVDDMASSGAYELFAAMPLERLVRLPGSLLAPEDYLTLLDRAQAGQD
modifications: Propionibacterium australiense
B4: 805 (protein)
chain: MLDIEKLIDEMTLEEKAGLCSGDDMWHTKAVERLGIPRIKMSDGPHGMRTFDDNGKVIPAVCFPTGSALAASFDTELVERVGAAIGEAAKTNGVHTVLGPAVNMKRSPLCGRNFEYLSEDPYLAGKLGSAMVRGIQSKGVGACPKHFAVNNQETRRMSVSADLSERTLREVYLPAFETIVKESSPHTMMCAYNRINGTYASENEHLLDEILRKEWGYQGIVMTDWSAMNRRPRALQAGLELEMPSSAGVNDEKIVEAVKAGDLSIEVLDEAVRRLLTWINAELQGRTESVCDLGVQRELAREAAGKSAVLLKNDDVLPLRKGDKIAFIGGFADKPRFEGGGSSHVSVEHMVNAIDAAKDIPNITYTEGFNTDDALSDYELVAEAVRIASEADVAVIFAGLPAAFESEGHDRTTLEIPESQNKLIAAISAVQPKTVVVFHGGSPVYMPWRKDVAAILYMYLGGQEVGSASVDLLFGDRNPSGKLAETFPLKLEDTPCYMNFPGDGNNAEYSEGIYIGYRWYDKRKIAVEYPFGFGMSYSDFIYRQIRSANSRITDTDTLKIYVDVQNRGEYAGEEIVQLYVQPSKARQGVRPVKELKGFKKMMIAPGETKTVCFELDKRSFAEYKPEISGWYAATGEYTILAGGSSDNLPLQVKVYVESTDTIPLVYNDYTTIGDLWDSGLDVNEVLDALDAKQTDLSALGLPADKMDRAIHMEEVKRGMPIHAVISMGGRDMNKIYQALLKVDGLEGKENIPL
modifications: uncultured Clostridium sp.
B5: 876 (protein, listed as Pyrenochaeta sp.)
chain: MQLSEMALTGVEVDATDVEYILKQMSLDEKIQMLAAKNVWETPEIERVGIPSLKVTDGPNGARGGSFFDGTTAACFPASVSLAATFSRELSRQIGTALGQEAITKGAYAVLGPTVCCHRSPLGGRNFEAFSEDPYLSGTLASEYVQGLQQERVAATVKHFLANEQDTRRFSINQTISERALREIYLKPFEMVVKEAKPWCFMSSYPKINGKHVDAQSLFLEDILRKEWSYDGLVMSDWGATSTVESVSYGLDLEMPGPPRFRTPEAVHQALLKGTVSESDIDARVLTTLKLLERVGKFADRRDTPKETAVDRPEHRELIRKAGSEGIVLLKNDRGILPIDVTKTKKVALLGPLAKYAAAHGGGSASLNCHYKVSPFDAFKDRLSEDVEIAHSKGAHIFRVYPDLEEGCLNARQRPGFLAEYFMTSRVTEEPFLVEQFPRGSFTTLMNTRATGCKTVRFTTTYSPVTPGAHYLSFSGLGPSKFYINDELVAHQTESTKDAMGFLLGVQEEIRTQFVFEVGKEYNIVVETHPSPTSNAELYLLDNQCSVHLGLISQEEMEQDVLAEAVSLAKDADLAIVFVGNTTQWETEGQDLESMSLPANGSQDDLIVRVAAANPNTIVVNTTGVPVELPWIDSVPAFLQAWYAGQETGNAILDVLLGTTCPSGKLPISWPKKYEHTGCFGNFGLDSFESRQVDYVEGVFVGYRWFDNLWGGEKEVRFPFGFGLSYTTFEITGTSIKGSLSNDAHHVLRVSIKVKNVGKCLGAEIVQVYLKPPVTEGLERPQKTLAGFEKIELRVGEEREVHIAIGKENAAFWDENLSKWRVSTGVYEVLVATSSHPRDCRAVLETVVEDEFIFKA
B6: 840 (protein, listed as Hungatella hathewayi)
chain: MNKKIKEILNSLTLEEKASLCSGVGLWQTRPLEDKGIPEIWMADGSNGVRIMKPVNQERKQDTSDFLKVTDLTQNSPTITNQYEAVCYPSGASLASTWDTELIEEMGEALGDECRYFKVNLLLAPGINIKRSPLGGRGYEYYSEDPYLTGKVAESFIKGVQKTGTGTSIKHFAANNAETLRINMSSDVDERALREIYLAPFEIGVKNAKPWTVMSSYNKVNGVQMAENRELLTDILRDEWGFNGVVVSDWGGVKDRIKALEAGNDLDMPENQRSNQSVVDAVRRGILSEAVLDQSVERILELVFKAKEQERFTDDMDFESHRNLSRKVAEESVVLLKNEKGLLPITKEKYKKVAVIGAFAREPRYQGGGCTLVNPIRISRPYEEMEKLAGKNIELTYAKGYELKDETSDELIHEAEEAAREADIAVIFGGLWVAYDREGFDRKHLEIDSSHIRLIEAVSRVQKRVVVVLSNGDAVVMSPWLDHVGAVVEQFLVGETVGEALARVLFGEVNPSGKLPVTFPKRLEDTSAYPYFPGECSHHVYGEGIFVGYRYFDKKKIEPLFPFGYGISYTTFQYSAIRADRSQMKDTDTVTVSVDVTNTGCVKGKEIVQIYVSDEKSRLKRPEKELKAFGKVELEPGETKTLTFTLGYRDFAYYDPEASDWVVEEGIFHIHAAANAGDIRQSIPVEVTEAKKKFRRLYLDSQHTAVFEHPMAKKMYLDFLVETGVIAADRVEAMAPLLKGNYMGIYNVVTSLLGGNVTKEEMQAVLDRINEVCKDNRPAE

One assay is described as follows: Experiment 5-3: screening of additional glucosidases for deglycosylation with QS-18 in treated bark extract (80%) at pH 6 and 35 deg C. The settings on record: TBE 80% (QS-21 approx. 4 g/L), pH 6, 35 deg C; UV HPLC. It counts as biochemical, Quillaja saponaria. The protocol: Experiment 5-1 was repeated, replacing CBE with Treated Bark Extract (TBE) at pH 6. TBE was prepared from CBE by PVPP treatment and concentration, to provide TBE with a QS-21 concentration of approximately 4 g/L. TBE was adjusted to pH 6 by dropwise addition of 2M NaOH with stirring.
Take B1: the “Experiment 5-3 % conv” value is given as <0.5%.
Same read-out and setting: for B2 the value was <0.5%; for B3, <0.5%.
Still for that read-out and setting: with B4 the figure was <0.5%; with B5, <0.5%.
On the same count and under the same terms, for B6 the value was <0.5%.

A further assay can be described thus: Experiment 5-2: screening of additional glucosidases for deglycosylation with QS-18 in crude bark extract (80%) at pH 6 and 35 deg C. Type of assay: biochemical, Quillaja saponaria. The conditions noted are these: CBE 80%, pH 6, 35 deg C, 18 hours; UV HPLC. The procedure, abridged: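 Deglycosylation of QS-18 was monitored by UV HPLC after MeCN/AcOH quench with hexanophenone. The reaction ran 18 hours at 35 deg C, shaking, combining clarified pH 6 lysate with crude bark extract neutralised to pH 6 by NaOH.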
On to B1, for which the “Experiment 5-2 % conv” value is on record as <0.5%.
On the same count and under the same terms, with B2 the figure was <0.5%.
On the same count and under the same terms, with B3 the figure was <0.5%; with B4, <0.5%.
Turning to B5, the “Experiment 5-2 % conv” value is <0.5%.
The same measure, in the same setting: with B6 the figure was <0.5%.

The next assay in a line: Experiment 5-1: screening of additional glucosidases for deglycosylation with purified QS-18 (0.04 mg/ml) at pH 7.5 and 30 deg C. It counts as biochemical, Quillaja saponaria. The settings on record: pH 7.5, 30 degrees C, 18 hours, LCMS/MS. As to the method: The 94 additional genes, together with positive control (DNA encoding SEQ ID No. 262) and negative control, were transformed, expressed, lysed and reacted in the same manner as described above for Experiment 4-1, except the reaction was incubated at 30 degrees C. for 18 hours.
Samples were analysed by LCMS/MS according to the procedure in Experiment 4-1.
Consider B1, for which the “Experiment 5-1 % conv” value turned out to be 3.5%.
Still for that read-out and setting: for B2 the value was 3.7%; for B3, 3.2%.
Take B4: the “Experiment 5-1 % conv” value was 3.8%.
On the same count and under the same terms, for B5 the value was 3.1%; for B6, 3.5%.
